Data: publication PMC9993842 (2023)

Target: LRP2 (megalin) (Mus musculus, UniProt A2ARV4)
Assay: SPR

B1: RAP (receptor-associated protein) (protein)
chain: YSREKNQPKPSPKRESGEEFRMEKLNQLWEKAQRLHLPPVRLAELHADLKIQERDELAWKKLKLDGLDEDGEKEARLIRNLNVILAKYGLDGKKDARQVTSNSLSGTQEDGLDDPRLEKLWHKAKTSGKFSGEELDKLWREFLHHKEKVHEYNVLLETLSRTEEIHENVISPSDLSDIKGSVLHSRHTELKEKLRSINQGLDRLRRVSHQGYSTEAEFEEPRVIDLWDLAQSANLTDKELEAFREELKHFEAKIEKHNHYQKQLEIAHEKLRHAESVGDGERVSRSREKHALLEGRTKELGYTVKKHLQDLSGRISRARHNEL
Kd: 5.8 nM
